According to the nanobody polyreactivity screen of Harvey et al. (2022):

Test: yeast display, Sf9 membrane polyspecificity reagent, FACS + sequencing; frameworks hold sequencing errors
Summary of the method: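 A nanobody's polyreactivity label depends on the gate it was sorted from. Yeast display cells were stained with 10% biotinylated, detergent-solubilized Sf9 membrane reagent for 1 hour at 4 °C, enriched on streptavidin microbeads and sorted by FACS. The low and high (top ~1%) gates were set on anti-HA fluorescence for expression and streptavidin fluorescence for reagent binding.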

Sequence | polyreactivity (PSR sort gate)
QVQLVESGGGLVQAGGSLRLSCAASGRIFAQYAMGWYRQAPGKERELVAAISRSGGTTYYADSVKGRFTISRDNAKNTVYLQMNSLKPDDTAVYYCAASLRYLYYYWGQGTQVTVSS | high polyreactivity
QVQLVESGGGLVQAGGSLRLSCAASGRIFAQYAMGWYRQAPGKERELVADISSGVRTYADSVKVRFTISRDNAKNTVYLQMNSLKPEDTAVYYCNAYYIIFTRNDYWGQGTQVTVSS | low polyreactivity
QVQLVESGGGLVQAGGSLRLSCAASGRIFARNAMGWYRQAPGKERELVADITSTGSTNYADSVKGRFTISRDNAMITVYLQMNSLKPEDTAVYYCAADYYTGYVWEDYYWGQGTQVTVSS | low polyreactivity
QVQLVESGGGLVQAGGSLRLSCAASGRIFARYAMGWYRQAPGKERELVAAITKSVGSTYYADSVKGRFTISRDNAKNTVYLQMNSLKPEDTAVYYCNAVARGYGYDYWGQGTQVTVSS | high polyreactivity
QVQLVESGGGLVQAGGSLRLSCAASGRIFARYAMGWYRQAPGTERELVASITRSGGSTYYADSVKGRFTISRDNAKNTVYLQMNSLKPEDTAVYYCAARYGRVRDVIPYDYWGQGTQVTVSS | high polyreactivity
QVQLVESGGGLVQAGGSLRLSCAASGRIFASYAMGWYRQAPGKERELVAAISLSGGSTYYADSVKGRFTISRDNAKNTVYLLMNSLKPEDNAVYYCNRLSNNREYVYWGQGTQLTVSS | high polyreactivity
QVQLVESGGGLVQAGGSLRLSCAASGRIFASYAMGWYRQAPGKERELVAAITRSGGRTYYADSVKGRFTISRDNAKNTVYLQMNSLKPADTAVDYCAVDTVTRTVLVYGDRNDSWGQGTQVTVSS | high polyreactivity
QVQLVESGGGLVQAGGSLRLSCAASGRIFASYTMGWYRQAPGKETELVAAISWRGDGTYYADSVKGRFTISRDYAKNTVYLQMNSLKPEDTAVYYCAADYVYYYHEYDYWGQGTQVTVSS | low polyreactivity
QVQLVESGGGLVQAGGSLRLSCAASGRIFASYVMGWYRQAPGKERELVAAISYGGSRTYYADSVKGRFTISRDNAKNTVYLQMNSLKPEDTAVYYCNARSKFYYHYWMDYWGQGTQVTVSS | high polyreactivity
QVQLVESGGGLVQAGGSLRLSCAASGRIFAVNAMGLYRQAPGKERELVARIRRIGGSTYYADSVKGRFTISRDNAKNTVYLQMNSQKPEDTAVYYCAAVSRVWLNLYNYWGQGTQVTVSS | high polyreactivity
QVQLVESGGGLVQAGGSLRLSCAASGRIFAVNAMGWYRQAPGKERELVASIRWSGGSTYYADSVKGRFTISRDNAKNTVYLQMNSLKPEDTAVYYCAAVIYLWGQGTQVTVSS | high polyreactivity
QVQLVESGGGLVQAGGSLRLSCAASGRIFAVNAMGWYRQAPGKERELVASIRWSGGSTYYADSVKGRFTISRDNAKNTVYLQMNTLKPEDTAVYYCNKVRGKTYYGEGDYWGQGTQVTVSS | high polyreactivity
QVQLVESGGGLVQAGGSLRLSCAASGRIFAVNAMGWYRQAPGKERELVATINSGGNTNYADSVKGRFTISRDNAKNTVYLQMNSLKPVDTAVYYCAARAFSAWLEMDYWGQGTQVTVSS | low polyreactivity
QVQLVESGGGLVQAGGSLRLSCAASGRIFAVYAMGWYRQAPGKERELVAAIRWSGVRTYYADSVTGRFTISRDTAKKTVYLQMNSLKPEDTAVYYCAADYSGQYYSPVSYLYDYWGQGTQVTVSS | high polyreactivity
QVQLVESGGGLVQAGGSLRLSCAASGRIFAWYAMGWYRQAPGKERELVAAISSGGSTNYADSVKGRFTISRDNAKNTVYLQMNSLKPEDTAVYYCNRYPVRDTGGYWGQGTQVTVSS | low polyreactivity
QVQLVESGGGLVQAGGSLRLSCAASGRIFAYNAMGWYRQAPGKERELVAAISWRVGCTYYADSVKGRFTISRDHAKNTVYLQMNSLKPEDTAVYYCNEAYYRHYQGDYWGQGTQVTVSS | high polyreactivity
QVQLVESGGGLVQAGGSLRLSCAASGRIFAYNTMGWSRQAPGKERELVAVITSGGSTNYADSVKGRFTISRDNAKNTVYLQMNSLKPEDTAVYYCAKRPYCRSGGSRYDYWGQGTQVTVSS | high polyreactivity
QVQLVESGGGLVQAGGSLRLSCAASGRIFAYYAMGWYRQAPGKERELVAAINRSGVRTYYADSVKGRFTISRDNAMNTVYFQINSLKPEDTAVYYCAAYVVGGEGDYWGQGTQVTVSS | high polyreactivity
QVQLVESGGGLVQAGGSLRLSCAASGRIFAYYAMGWYRQAPGKERELVAAITSDGSSTYYADSVKGRFTISRDNAKNTVYLQMNSLKPEDTAVDYCAAGTYPFWDWIFDLWVDYWGQGTQVTVSS | high polyreactivity
QVQLVESGGGLVQAGGSLRLSCAASGRIFAYYAMGWYRQAPGKERELVADITRSGARTYYADSVKGRFTISRDNANNTVYLQMNSLTPEDTAVYYCAAEGVRIGTRYDYWGQGTQVTVSS | high polyreactivity
QVQLVESGGGLVQAGGSLRLSCAASGRIFAYYTMGWYRQAPGKERELVAAITNGGRTSYADSVKGRFTISRDNAKNTVYLQMNSLKPEDTAVYYCNAQQYRWPRVYYNYNYWGQGTQVTVSS | high polyreactivity

Sequence | polyreactivity (PSR sort gate)
QVQLVESGGGLVQAGGSLRLSCAASGRIFDANAMGWYRQAPGKERELVAAITYSGGRTYYADSVKGRFTISRDNAKNTVYLQMNSLKPVDTAVYYCAKRYAYIYDSWGQGTQVTVSS | low polyreactivity
QVQLVESGGGLVQAGGSLRLSCAASGRIFDDNAMGWYRQAPGKERELVAAITGPDDSTDYADSVKGRFTISRDNAKNTVYLQMNSLKPEDTAVYYCAKDAGYWYYWNGYWGQGTQVTVSS | high polyreactivity
QVQLVESGGGLVQAGGSLRLSCAASGRIFDDYAMGWYRQAPGKERELVAAISWSGGSTYYADSVKGRFTISRDNAKNTVYLQMNSLKPEDTAVYYCAAPYHSYKRIGYDYWGQGTQVTVSS | low polyreactivity
QVQLVESGGGLVQAGGSLRLSCAASGRIFDEYAMGWYRQAPGKERELVAAIDTSTGSTYYADSVKGRFTISRDNAKNTVYLQMNSLKPEDTAVYYCAAEVYFGLFYVVFQYDYWGQGTQVTVSS | high polyreactivity
QVQLVESGGGLVQAGGSLRLSCAASGRIFDGNAMGWYRQAPGKERELVAAISSRGARTYYADSVKGRFTISRDNAKNTVYLQMNSLKPEDTAVYYCNKDLDSLSGAEYDYWGQGTQVTVSS | high polyreactivity
QVQLVESGGGLVQAGGSLRLSCAASGRIFDGYAMGWYRQAPGKERELVAAISSRGGRTYYADSVKGRFTISRDNAKNTVYLQMNSLKPEDTAVYYCAGDDPYGEGDYWGQGTQVTVSS | low polyreactivity
QVQLVESGGGLVQAGGSLRLSCAASGRIFDGYAMGWYRQAPGKERELVATITGDGGSTYYADSVKGRFTISRDNAKNTVYLQMNSLKPEDTAVYYCAARLTRRLSWYLYNNDYWGQGTQVTVSS | high polyreactivity
QVQLVESGGGLVQAGGSLRLSCAASGRIFDGYAMGWYRQAPGKESELVAAISSRGGRTYYADSVKGRFTISRDNAKNTVYLQMNSLKPEDTAVYYCAGDDPYGEGDYWGQGTQVTVSS | low polyreactivity
QVQLVESGGGLVQAGGSLRLSCAASGRIFDGYVMGWYRQAPGKERELVAAISASGGSTYYADSVKGRFTISRDNAKNTVYLQMNSLKPEDTAVYYCATDALYGYDYWGQGTQVTVSS | high polyreactivity
QVQLVESGGGLVQAGGSLRLSCAASGRIFDHYAMVWYRQAPGKERELVAAITRSGGITYYADSVKGRFTISRDNAKYTVYLQMNSLKPEDTAVYYCAALSYRYTDNFDYWGQGTQVTVSS | low polyreactivity
QVQLVESGGGLVQAGGSLRLSCAASGRIFDIYALGWYRQAPGKERELVAAITWRGGSTYYADSVKGRFTISRDNAKNTVYLQMNSLKPEDTAVYYCAVDFITPRGSYYWGQGTQVTVSS | low polyreactivity
QVQLVESGGGLVQAGGSLRLSCAASGRIFDIYAMGWYRQAAGKERELVAAIRLSSGTTYYADSVKGRFTISRDNAKNTVYLQMNSLKPEDTAVYYCGADFIRPPYDYWGQGTQVTVSS | high polyreactivity
QVQLVESGGGLVQAGGSLRLSCAASGRIFDKYTMGWYRQAPGKERELVAAISKSGSGTFYADSVKGRFTISRDNAKNTVYLQMNSLKPEDTAVYYCARVYTVGTGRSWRLDYWGQGTQVTVSS | high polyreactivity
QVQLVESGGGLVQAGGSLRLSCAASGRIFDLKAMGWYRQAPGERKGVGCLYFLVWWSTYYADSVKGRFTISRDNAKNTVYLQMNSLKPVDTAVYYCAAVYFYSWEGDGDYWGQGTQVTVSS | low polyreactivity
QVQLVESGGGLVQAGGSLRLSCAASGRIFDLNAMGWYRQAPGKERELVAVIDSYGSTYYADSVKGRFTISRDNAKNTVYLQMNSQKPEDSAVYYCTKYWYSRHVRYWAYYAEQRYDYWGQGTQVTVSS | low polyreactivity
QVQLVESGGGLVQAGGSLRLSCAASGRIFDLNAMGWYRQAPGKETELVAAISYSGGRTFYADSVKGRFTISRDNAKNTVYLQMNSLKPEDTAVYYCNARYGKPAYQYGMDYWGQGTQVTVSS | low polyreactivity
QVQLVESGGGLVQAGGSLRLSCAASGRIFDLYTMGWYRQAPGKERELVAAIRWSDGSTYYADSVKGRFTISRDNAKNTDYLQMNSLKPEDTAVYYCAADSRTSYYNDDYDYWGQGTQVTVSS | low polyreactivity
QVQLVESGGGLVQAGGSLRLSCAASGRIFDQYAMAWYRQAPGKERELVATISGSGGSTYYADSVKGRFTISRDNAKNTVYLQMNSLKPEDTAVYYCAAVSVSSWYDYWGQGTQVTVSS | low polyreactivity
QVQLVESGGGLVQAGGSLRLSCAASGRIFDRNAMGWYRQAPGKERELVAAITRSGGRPYYADSVKGRFTISRDNAKNTVYLQMNSLKPEDTAVYYCNRGYPRSVVHYNSWGQGTQVTVSS | high polyreactivity
QVQLVESGGGLVQAGGSLRLSCAASGRIFDRYDMGWYRQAPGKERELVAGITASGGSTYYADSVKGRFTISRDNAKNTVYLQMTSLKPEDTAVYYCAVVYGYRYYYWGQGTQVTVSS | high polyreactivity
